Assay results: patent US20050251885A1, “Method for enhancing yield of recombinant protein production from plants” (UNIVERSITE LAVAL, priority 2002, published 2005)

B1: α-1 antichymotrypsin: human serpin, inhibitor of chymotrypsin-like proteases (protein, UniProt P01011 24-423, looked up)
Alpha-1-antichymotrypsin: HPNSPLDEENLTQENQDRGTHVDLGLASANVDFAFSLYKQLVLKAPDKNVIFSPLSISTALAFLSLGAHNTTLTEILKGLKFNLTETSEAEIHQSFQHLLRTLNQSSDELQLSMGNAMFVKEQLSLLDRFTEDAKRLYGSEAFATDFQDSAAAKKLINDYVKNGTRGKITDLIKDLDSQTMMVLVNYIFFKAKWEMPFDPQDTHQSRFYLSKKKWVMVPMMSLHHLTIPYFRDEELSCTVVELKYTGNASALFILPDQDKMEEVEAMLLPETLKRWRDSLEFREIGELYLPKFSISRDYNLNDILLQLGIEEAFTSKADLSGITGARNLAVSQVVHKAVLDVFEEGTEASAATAVKITLLSALVETRTIVRFNRPFLMIIVPTDTQNIFFMSKVTNPKQA

Tested on: alfalfa leaf proteases (fraction #8)
Assay: Fibronectin proteolysis by alfalfa leaf Mono-Q fraction #8 with protease inhibitors, immunodetection
Assay type: biochemical, alfalfa (cultivar Saranac)
Details: for proteolysis of fibronectin by the Mono-Q fraction in presence of inhibitor: 5 μl fraction #8, 350 ng fibronectin, 37° C., 15 min, FIG. 5B
Description: Firstly, a protein extract from alfalfa leaves was separated by chromatography to isolate a specific fraction containing the greatest protease activity. Alfalfa (cultivar Saranac) leaves were extracted by grinding in liquid nitrogen and resolubilization in 50 mM Tris-HCl, pH 6,8, containing 10 mM β-mercaptoethanol. The crude extract was centrifuged for 15 min at 10000 g at 4° C., and the supernatant was filtered through a 0.3 μm pore size filter. Fifteen mg of leaf proteins were then loaded on of a Mono-Q FPLC column (Pharmacia) equilibrated with extraction buffer. Proteins were eluted with a linear gradient of KCl (0 to 0.7 M) in extraction buffer, at a flow rate of 2 ml/min. Fractions of 500 μl were collected, and sample of each fraction was loaded onto a gelatin/PAGE gel (FIG. 5A). Fraction #8, which caused the highest proteolysis of gelatin in gel, was use to assess the protective effect of α-1 antichyinotrypsin.
Secondly, the identified fraction #8 was used in conjunction with various protease inhibitors to identify potential candidates for the inhibition of fibronectin proteolysis. In the experiment illustrated in FIG. 5B, 5 μl of fraction #8 was mixed with 350 ng of fibronectin and incubated at 37° C. for 15 min, in the presence of 2 μl H2O (lane 2), 2 μl of 10 mM chymostatin (lane 3) or 2 μl α-1 antichymotrypsin (lane 4). The control (lane 1) contained 5 μl extraction of buffer instead of alfalfa proteases. The reaction was stopped after 15 min. and fibronectin was immunodetected as in FIG. 1C. […] Note that both protein (α-1 antichymotrypsin) and chemical (chymostatin) molecules were efficient to decrease degradation of fibronectin.

Row | Molecule | proteolysis of fibronectin by the Mono-Q fraction in presence of inhibitor | stability of fibronectin on inhibiting alfalfa proteases (FIG. 5)
1 | CC(C)C[C@H](NC(=O)[C@@H](NC(=O)N[C@@H](Cc1ccccc1)C(=O)O)[C@@H]1CCN=C(N)N1)C(=O)N[C@H](C=O)Cc1ccccc1 [chymostatin, reference compound] | prevented | –
2 | B1 | prevented | significantly increased
